T1: PRO256 polypeptide
T1 chain: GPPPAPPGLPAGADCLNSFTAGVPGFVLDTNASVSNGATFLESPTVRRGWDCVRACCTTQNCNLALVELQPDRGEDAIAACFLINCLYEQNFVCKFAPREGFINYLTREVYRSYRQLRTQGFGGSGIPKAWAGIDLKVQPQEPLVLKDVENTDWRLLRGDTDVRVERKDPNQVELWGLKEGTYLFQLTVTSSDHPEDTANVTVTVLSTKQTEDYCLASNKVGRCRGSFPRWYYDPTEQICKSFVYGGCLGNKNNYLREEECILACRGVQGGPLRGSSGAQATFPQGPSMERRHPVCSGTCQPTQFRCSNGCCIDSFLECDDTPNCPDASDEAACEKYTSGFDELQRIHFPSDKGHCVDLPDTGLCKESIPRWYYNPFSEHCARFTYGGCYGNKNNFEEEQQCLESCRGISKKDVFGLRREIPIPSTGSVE

B1: hepatocyte growth factor activator (as present in human serum) (protein)
chain: VQLSPDLLATLPEPASPGRQACGRRHKKRTFLRPRIIGGSSSLPGSHPWLAAIYIGDSFCAGSLVHTCWVVSAAHCFSHSPPRDSVSVVLGQHFFNRTTDVTQTFGIEKYIPYTLYSVFNPSDHDLVLIRLKKKGDRCATRSQFVQPICLPEPGSTFPAGHKCQIAGWGHLDENVSGYSSSLREALVPLVADHKCSSPEVYGADISPNMLCAGYFDCKSDACQGDSGGPLACEKNGVAYLYGIISWGDGCGRLHKPGVYTRVANYVDWINDRIRPPRRLVAPS
B2: human factor XIIa (Haematologic Technologies) (protein)
chain: IPPWEAPKEHKYKAEEHTVVLTVTGEPCHFPFQYHRQLYHKCTHKGRPGPQPWCATTPNFDQDQRWGYCLEPKKVKDHCSKHSPCQKGGTCVNMPSGPHCLCPQHLTGNHCQKEKCFEPQLLRFFHKNEIWYRTEQAAVARCQCKGPDAHCQRLASQACRTNPCLHGGRCLEVEGHRLCHCPVGYTGAFCDVDTKASCYDGRGLSYRGLARTTLSGAPCQPWASEATYRNVTAEQARNWGLGGHAFCRNPDNDIRPWCFVLNRDRLSWEYCDLAQCQTPTQAAPPTPVSPRLHVPLMPAQPAPPKPQPTTRTPPQSQTPGALPAKREQPPSLTRNGPLSCGQRLRKSLSSMTRVVGGLVALRGAHPYIAALYWGHSFCAGSLIAPCWVLTAAHCLQDRPAPEDLTVVLGQERRNHSCEPCQTLAVRSYRLHEAFSPVSYQHDLALLRLQEDADGSCALLSPYVQPVCLPSGAARPSETTLCQVAGWGHQFEGAEEYASFLQEAQVPFLSLERCSAPDVHGSSILPGMLCAGFLEGGTDACQGDSGGPLVCEDQAAERRLTLQGIISWGSGCGDRNKPGVYTDVAYYLAWIREHTVS

Columns and labels:
PRO256 polypeptide = molecular target: T1, PRO256 polypeptide
[1] = molecular target: single-chain hepatocyte growth factor (scHGF)
Chain of single-chain hepatocyte growth factor (scHGF) (P14210 whole entry): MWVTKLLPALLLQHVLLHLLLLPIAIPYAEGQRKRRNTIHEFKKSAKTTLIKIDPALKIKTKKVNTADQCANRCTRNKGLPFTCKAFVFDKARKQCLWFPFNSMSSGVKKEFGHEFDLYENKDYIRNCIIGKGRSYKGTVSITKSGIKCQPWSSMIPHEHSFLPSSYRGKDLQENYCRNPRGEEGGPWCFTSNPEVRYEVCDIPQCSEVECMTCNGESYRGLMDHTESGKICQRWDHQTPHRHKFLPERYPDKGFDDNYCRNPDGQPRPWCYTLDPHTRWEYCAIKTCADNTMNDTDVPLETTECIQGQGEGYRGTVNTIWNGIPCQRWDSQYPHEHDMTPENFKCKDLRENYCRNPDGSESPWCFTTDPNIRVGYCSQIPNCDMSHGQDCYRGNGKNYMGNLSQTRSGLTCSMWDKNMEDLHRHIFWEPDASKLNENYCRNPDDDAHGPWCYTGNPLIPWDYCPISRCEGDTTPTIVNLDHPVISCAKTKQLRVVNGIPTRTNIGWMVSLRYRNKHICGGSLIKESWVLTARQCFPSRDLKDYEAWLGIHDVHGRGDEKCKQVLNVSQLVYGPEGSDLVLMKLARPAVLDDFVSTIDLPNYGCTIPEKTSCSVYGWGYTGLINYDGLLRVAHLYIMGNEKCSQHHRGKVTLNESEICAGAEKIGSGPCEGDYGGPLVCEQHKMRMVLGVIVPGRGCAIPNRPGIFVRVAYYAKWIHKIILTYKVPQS

Protein | human serum (10%)-mediated conversion of ^125I-scHGF into its two chain form, SDS-PAGE/autoradiography, PRO256 at 1 µM (PRO256 polypeptide) | factor XIIa (40 nM) conversion of ^125I-scHGF into its two chain form, SDS-PAGE/autoradiography, with or without PRO256 (PRO256 polypeptide) | conversion of ^125I-scHGF into its two chain form, factor XIIa 40 nM, SDS-PAGE/autoradiography [1] | conversion of scHGF into its two chain form, factor XIIa 20 nM, SDS-PAGE with autoradiography or Coomassie staining [1]
B1 | In the presence of the inhibitor PRO256 (at time intervals 0, 0.5 hr, 1 hr, 2 hr, and 4 hr), ^125I-sc-HGF is not converted two chain form as indicated by the top heavy band on the gel. |  |  | 
B2 |  | In the presence or absence of PRO256, factor XIIa converts ^125I-scHGF into its two chain form, thereby indicating lack of inhibition by PRO256. | factor XIIa converts ^125I-scHGF into its two chain form | Both labelled and unlabelled HGF were converted identically, suggesting that the iodination of scHGF did not impair processing by its activators, such as factor XIIa.

— patent US20020123091
